Values quoted from earlier work as cited in PMC3814599.
“And” between values parts separate entries of the source, which are not always exact repeats. Identical values can stand only once.

Target: HIV-1 capsid (CA) NTD (Human immunodeficiency virus 1) (UniProt O93182)

Sequence of NUP358 (P49792 whole entry): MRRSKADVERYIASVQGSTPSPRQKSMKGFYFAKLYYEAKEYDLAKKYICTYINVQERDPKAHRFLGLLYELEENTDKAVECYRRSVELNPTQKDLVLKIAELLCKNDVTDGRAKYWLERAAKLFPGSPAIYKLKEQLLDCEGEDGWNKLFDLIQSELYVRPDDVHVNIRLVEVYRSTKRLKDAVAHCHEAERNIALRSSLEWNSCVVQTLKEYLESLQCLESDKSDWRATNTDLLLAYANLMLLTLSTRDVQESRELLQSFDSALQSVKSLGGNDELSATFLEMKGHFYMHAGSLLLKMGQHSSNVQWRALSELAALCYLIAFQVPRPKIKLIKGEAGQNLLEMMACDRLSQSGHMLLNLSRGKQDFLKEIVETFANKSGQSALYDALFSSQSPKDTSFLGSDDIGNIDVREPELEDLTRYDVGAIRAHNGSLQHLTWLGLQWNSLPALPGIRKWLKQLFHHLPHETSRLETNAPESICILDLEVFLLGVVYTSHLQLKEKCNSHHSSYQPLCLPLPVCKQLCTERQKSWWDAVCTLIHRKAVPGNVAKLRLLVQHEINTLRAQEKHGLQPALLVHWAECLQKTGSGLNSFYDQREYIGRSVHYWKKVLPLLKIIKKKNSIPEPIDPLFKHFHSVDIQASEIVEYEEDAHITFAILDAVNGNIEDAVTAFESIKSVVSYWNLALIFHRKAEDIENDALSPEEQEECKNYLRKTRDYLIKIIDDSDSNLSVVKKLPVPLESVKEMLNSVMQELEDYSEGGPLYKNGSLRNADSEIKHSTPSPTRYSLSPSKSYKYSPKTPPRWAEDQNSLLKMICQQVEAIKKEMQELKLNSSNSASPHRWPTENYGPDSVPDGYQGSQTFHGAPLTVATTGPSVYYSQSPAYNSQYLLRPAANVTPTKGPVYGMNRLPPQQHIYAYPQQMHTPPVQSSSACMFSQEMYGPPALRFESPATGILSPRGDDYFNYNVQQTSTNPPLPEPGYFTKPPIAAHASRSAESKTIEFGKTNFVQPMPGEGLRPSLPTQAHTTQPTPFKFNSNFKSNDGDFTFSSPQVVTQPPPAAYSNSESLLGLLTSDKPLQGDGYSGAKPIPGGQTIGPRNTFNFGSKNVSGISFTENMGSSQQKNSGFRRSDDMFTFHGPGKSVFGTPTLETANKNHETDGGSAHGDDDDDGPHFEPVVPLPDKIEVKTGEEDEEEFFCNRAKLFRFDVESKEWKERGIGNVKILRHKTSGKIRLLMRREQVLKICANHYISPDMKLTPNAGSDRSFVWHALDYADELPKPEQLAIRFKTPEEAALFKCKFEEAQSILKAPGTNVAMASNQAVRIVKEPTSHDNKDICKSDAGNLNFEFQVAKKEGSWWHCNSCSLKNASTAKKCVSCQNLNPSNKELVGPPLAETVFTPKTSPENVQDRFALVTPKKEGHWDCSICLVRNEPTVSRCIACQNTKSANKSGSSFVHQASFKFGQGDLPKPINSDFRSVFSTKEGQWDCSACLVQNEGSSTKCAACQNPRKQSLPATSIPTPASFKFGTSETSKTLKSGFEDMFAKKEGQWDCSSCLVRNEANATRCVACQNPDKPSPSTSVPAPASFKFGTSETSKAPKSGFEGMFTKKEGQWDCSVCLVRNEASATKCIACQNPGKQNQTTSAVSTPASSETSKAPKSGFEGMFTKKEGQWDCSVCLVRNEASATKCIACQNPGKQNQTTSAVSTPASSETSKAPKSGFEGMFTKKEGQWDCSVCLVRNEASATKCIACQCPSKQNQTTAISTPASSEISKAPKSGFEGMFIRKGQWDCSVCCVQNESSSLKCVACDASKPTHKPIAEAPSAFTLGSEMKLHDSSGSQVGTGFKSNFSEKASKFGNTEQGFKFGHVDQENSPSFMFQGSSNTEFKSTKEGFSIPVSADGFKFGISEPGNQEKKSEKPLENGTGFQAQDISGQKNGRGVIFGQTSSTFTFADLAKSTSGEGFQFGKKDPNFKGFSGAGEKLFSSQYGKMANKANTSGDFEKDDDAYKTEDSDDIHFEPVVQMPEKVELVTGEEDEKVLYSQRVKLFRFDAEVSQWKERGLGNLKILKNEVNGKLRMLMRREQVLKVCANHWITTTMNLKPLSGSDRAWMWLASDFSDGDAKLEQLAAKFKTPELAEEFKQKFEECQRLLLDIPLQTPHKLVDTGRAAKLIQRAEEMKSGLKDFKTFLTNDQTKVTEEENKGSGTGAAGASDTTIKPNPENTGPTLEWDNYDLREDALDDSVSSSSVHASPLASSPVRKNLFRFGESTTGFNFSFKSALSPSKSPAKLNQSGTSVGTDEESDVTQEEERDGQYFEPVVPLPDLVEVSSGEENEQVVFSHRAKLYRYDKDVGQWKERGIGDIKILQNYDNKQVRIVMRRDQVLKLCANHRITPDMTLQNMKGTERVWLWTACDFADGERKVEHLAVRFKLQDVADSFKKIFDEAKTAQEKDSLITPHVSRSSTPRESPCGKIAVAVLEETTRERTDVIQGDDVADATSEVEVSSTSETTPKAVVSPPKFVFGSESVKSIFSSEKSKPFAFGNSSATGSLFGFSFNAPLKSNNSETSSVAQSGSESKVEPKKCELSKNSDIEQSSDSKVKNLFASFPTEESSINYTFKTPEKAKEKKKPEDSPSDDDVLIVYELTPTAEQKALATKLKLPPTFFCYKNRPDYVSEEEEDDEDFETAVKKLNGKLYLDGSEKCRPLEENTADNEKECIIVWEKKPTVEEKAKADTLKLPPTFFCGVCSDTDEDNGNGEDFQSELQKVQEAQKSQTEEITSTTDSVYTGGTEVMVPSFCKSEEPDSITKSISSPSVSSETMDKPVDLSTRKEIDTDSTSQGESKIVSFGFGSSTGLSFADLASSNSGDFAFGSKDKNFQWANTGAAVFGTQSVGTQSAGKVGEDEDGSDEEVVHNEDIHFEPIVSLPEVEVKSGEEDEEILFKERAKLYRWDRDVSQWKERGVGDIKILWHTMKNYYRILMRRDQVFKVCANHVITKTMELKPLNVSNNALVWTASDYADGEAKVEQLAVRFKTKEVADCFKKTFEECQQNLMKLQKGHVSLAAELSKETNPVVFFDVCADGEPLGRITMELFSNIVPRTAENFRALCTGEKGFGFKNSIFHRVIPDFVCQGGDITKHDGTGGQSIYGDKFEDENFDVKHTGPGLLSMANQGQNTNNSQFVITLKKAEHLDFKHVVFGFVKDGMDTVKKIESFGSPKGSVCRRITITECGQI

NUP358 (from UniProt P49792)
Kd: 150 µM and 16 µM
